According to patent US10413588B2, “Probiotic function of human intelectin” (Wisconsin Alumni Research Foundation, priority 2015, dated 2019):
Entries after “also recorded” stand apart in the source; their conditions may differ.

Legend:
[1] = hIntL-1 carbohydrate binding ELISA-like assay
[2] = hIntL-1 carbohydrate binding ELISA-like assay; remark: listed apart in the source
Description: To fabricate carbohydrate-displaying surfaces, 0.5 μg of streptavidin (Prozyme, cat. no. SA20) was adsorbed onto a Maxisorp (Nunc) flat bottom 96 well plate in PBS. Wells were washed with PBS and then coated with 5 μM of carbohydrate-biotin ligand in PBS for 1 hour at 22° C. Wells were blocked with bovine serum albumin (BSA) in ELISA buffer (20 mM HEPES (7.4) 150 mM NaCl, 10 mM CaCl2, and 0.1% tween-20). Samples containing hIntL-1 were prepared by serial dilution into ELISA buffer+0.1% BSA and added to wells for 2 hours at 22° C. Wells were washed four times with ELISA buffer. Bound hIntL-1 was detected using 0.75 μg/mL of a sheep IgG hIntL-1 antibody (R&D Systems, cat. no. AF4254) in ELISA buffer+0.1% BSA for 2 hours at 22° C. Wells were washed with ELISA buffer. A donkey anti-sheep IgG horseradish peroxidase (HRP) conjugate (Jackson ImmunoResearch Laboratories) was added at a 1:5,000 dilution in ELISA buffer+0.1% BSA for 1 hour at 22° C. Wells were washed and hIntL-1 was detected colorimetrically with addition of 1-Step Ultra TMB-ELISA (Pierce). Once sufficient signal was achieved (typically <2 min.), the reaction was quenched with addition of equal volume 2 M H2SO4. Plates were read at 450 nm on an ELx800 plate reader (Bio-Tek). When testing the Ca^2+ dependency of hIntL-1, 1 mM EDTA replaced 10 mM CaCl2 in all steps. Data were analyzed on Prism6 (GraphPad). […]

[3] = hIntL-1 surface plasmon resonance (SPR); format: binding
Description: All hIntL-1 SPR was performed on a ProteOn XPR36 (Bio-Rad) at the University of Wisconsin-Madison Department of Biochemistry Biophysics Instrumentation Facility (BIF). To measure hIntL-1 binding, ProteOn NLC sensor chips (Bio-Rad) (NeutrAvidin coated chips) were used to capture carbohydrate-biotin ligand. All experiments presented here were conducted at surface saturated levels of ligand, ˜200 RU. In all experiments, captured biotin served as a control. Samples containing purified hIntL-1 were prepared by serial dilution into hIntL-1 SPR running buffer (20 mM HEPES (7.4) 150 mM NaCl, 1 mM CaCl2, and 0.005% tween-20). Surfaces were regenerated with short injections of 10 mM HCl. All data was interspot corrected and processed using the Bio-Rad ProteOn software package.

[4] = CFG mammalian glycan array v5.1; format: binding; details: hIntL-1 at 50 and 200 μg/ml
[5] = Microbial Glycan Microarray (MGMv2); format: binding, S. pneumonia; details: Strep-hIntL-1 50 μg/mL; α-Galf containing glycan
Description: (§1) Strep-hIntL-1 was used to interrogate the Microbial Glycan Microarray version 2 (MGMv2). Construction of the MGMv2 is previously described. Briefly, bacterial polysaccharide samples were dissolved and diluted to 0.5 mg/mL in printing buffer (150 mM sodium phosphate buffer (8.4)+0.005% Tween-20). Samples were immobilized on NETS-activated glass slides (SlideH, Schott/Nexterion) using a MicroGrid II (Digilab) contact microarray printer equipped with SMP-4B printing pins (Telechem). Six replicates of each bacterial glycan sample were printed. Covalent coupling of glycans to the surface was facilitated by incubation for 1 hour postprint at 100% relative humidity. The remaining reactive NHS-moieties were quenched using a blocking solution (50 mM ethanolamine in 50 mM borate buffer (9.2)). Blocked slides were stored at −20° C. until assays were performed. […] The Strep-Tag® II on bound hIntL-1 was detected using StrepMAB-Classic Chromeo647 (10 μg/mL, IBA GmbH Lifesciences) diluted in binding buffer applied directly to the array surface and allowed to incubate for 1 hour. […] Signal data was calculated as the average of 4 values after removing the high and low values of the 6 replicates. Data were plotted using Excel (Microsoft) as average Relative Fluorescence Units (RFU) versus print identification number. […]

[6] = Microbial Glycan Microarray (MGMv2); format: binding, E. coli; details: Strep-hIntL-1 50 μg/mL; terminal α-Galf residue
Description: as §1

[7] = Microbial Glycan Microarray (MGMv2); format: binding, Salmonella enterica; details: Strep-hIntL-1 50 μg/mL; terminal α-Galf residue
Description: as §1

B1: hIntL-1: human lectin intelectin-1, accession no. Q8WWA0; recombinant disulfide-linked trimer from HEK 293T cells, used also N-terminally Strep-tagged (Strep-hIntL-1) (protein, listed as Homo sapiens)
chain: MNQLSFLLFLIATTRGWSTDEANTYFKEWTCSSSPSLPRSCKEIKDECPSAFDGLYFLRTENGVIYQTFCDMTSGGGGWTLVASVHENDMRGKCTVGDRWSSQQGSKAVYPEGDGNWANYNTFGSAEAATSDDYKNPGYYDIQAKDLGIWHVPNKSPMQHWRNSSLLRYRTDTGFLQTLGHNLFGIYQKYPVKYGEGKCWTDNGPVIPVVYDFGDAQKTASYYSPYGQREFTAGFVQFRVFNNERAANALCAGMRVTGCNTEHHCIGGGGYFPEASPQQCGDFSGFDWSGYGTHVGYSSSREITEAAVLLFYR
- binding to β-Galf on addition of EDTA ([1]; hIntL-1 conditioned HEK culture media, addition of 25 mM EDTA): completely abolished binding
- Kd ([1]; trimeric hIntL-1, ELISA-like assay, 10 mM CaCl2, read-out: avidity (apparent Kd) for immobilized β-Galf): 85 ± 14 nM
- binding to immobilized α-Neu5Ac [2]: lack of affinity; also recorded: does not bind
- SPR response to immobilized β-galactopyranose ([3]; attributed to the extended anomeric alkyl linker): small response
- binding to immobilized β-Galf by SPR ([3]; immobilized carbohydrate-biotin ligand, 1 mM CaCl2): robust binding
- binding to human glycan ligands on CFG mammalian glycan array [4]: none are bound by hIntL-1 with appreciable affinity
- average signal on microbial glycan array [5]: −9.6 RFU
- signal on microbial glycan array [6]: 49 RFU
- signal on microbial glycan array [7]: 66 RFU
